B1: A4-063 (VHH)
VHH: VQLQESGGGLVQPGGSLRLSCAASGRRFTINTMGWYRRAPGKQRELVATITRGGSTNYAGSVKGRFTISRDNPKNTVYLQMNSLRPEDTAVYYCHIDEVRQSSWTTSNLWGQGTQVTVSS
B2: A4-065 (VHH)
VHH: VQLQESGGGLVQSGGSLRLSCAASGRNFSLNTVGWYRQAPGKQRELVATVTRGGSTNYAGSVKGRFTISRDNAKNTVYLQMNSLRPEDTAVYYCHVDEVRESSWTTSNLWGQGTQVTVSS
B3: A4-066 (VHH)
VHH: VQLQESGGGLVQTGGSLRLSCAASGRAFSLNTMGWYRQAPGKQRELVATVTRGGSTNYAGSVKGRFTISRDNAKNTVYLQMNSLRPEDTAVYYCHVDEVRESSWTTSNLWGQGTQVTVSS
B4: A4-069 (VHH)
VHH: VQLQESGGGLVQPGGSLRLSCAASGSIFTINSMGWYRQAPGKWRELVATVTRGGNTNYANSVKGRFTISRDNAKNTVYLQMNTLRPEDTAVYYCHLDEVRDSSWTTSNLWGQGTQVTVSS
B5: A4-070 (VHH)
VHH: VQLQESGGGLVQPGGSLRLSCAASGSIFSINSMGWYRQAPGKWRELVATVTRGGSTNYANSVKGRFTISRDNAKNTVYLQMNTLRPEDTAVYYCHLDEVRDSSWTTSNLWGQGTQVTVSS
B6: A4-073 (VHH)
VHH: VQLQESGGGLVQPGGSLRLSCAASGSNFSINTMGWYRQAPGKQREMVATVTRGGSTNYGDFVKGRFTISRDNAKNTVYLQMNSLRPEDTAVYYCHVDEIRQSSWTTSNIWGQGTQVTVSS
B7: A4-075 (VHH)
VHH: VQLQESGGGLVQSGGSLRLSCAASGSMFSLNTMGWYRQAPGKQRELVATITRGGGTNYADSVKGRFTISRDNAKNTVYLQMNSLRPEDTAVYYCHVDELRQSSWTTSNLWGQGTQVTVSS
B8: A4-078 (VHH)
VHH: VQLQESGGGLVQPGGSLRLSCLASGTMFSLNTMGWYRQAPGKQRELVATVTRGGSTNYADFVKGRFTISRDNAKNTVYLQMNSLRPEDTAVYYCHVDEVRDSSWTTSNLWGQGTQVTVSS
B9: A4-079 (VHH)
VHH: VQLQESGGGLVQPGGSLRLSCAASGTRFSINTMGWYRQAPGKQRELVANVTPAGSTNYADSVKGRFTISRDNAKNTVYLQMNSLRPEDTAVYYCHVDELRDSSWTTSNLWGQGTQVTVSS
B10: A4-080 (VHH)
VHH: VQLQESGGGLVQPGGSLRLSCAASGSRFSLNTMGWYRQAPGKQRELVATVTRGGSTNYADFVKGRFTISRDNAKNTVYLQMNSLRPEDTAVYYCHVDELRESGWTTSNLWGQGTQVTVSS
B11: A4-081 (VHH)
VHH: VQLQESGGGLVQPGGSLRLSCAASGSRFSLNTMGWYRQAPGKQRELVATVTRGGSTNYADSVKGRFTISRDNAKNTVYLQMNSLRPEDTAVYYCHVDELRESGWTTSNLWGQGTQVTVSS
B12: A4-082 (VHH)
VHH: VQLQESGGGLVQPGGSLRLSCAASGSRFSLNTMGWYRQAPGKQRELVATVTRGGSTKYADFVKGRFTISRDNAKNTVYLQMNSLRPEDTAVYYCHVDELRESGWTTSNLWGQGTQVTVSS
B13: A4-084 (VHH)
VHH: VQLQESGGGLVQPGGSLKLSCAASGSRFSLNTMGWYRQAPRKQREFVAAVTRGGNTNYGDFVKGRFTISRDNAKNTVYLQMNSLRPEDTAVYYCHVDELRESSWTTSNLWGQGTQVTVSS
B14: A4-085 (VHH)
VHH: VQLQESGGGLVQPGGSLRLSCAASGSRFSLNTMGWYRQAPGKQREFVAAVTRGGNTNYGDFVKGRFTISRDNAKNTVYLQMNSLRPEDTAVYYCHVDELRESSWTTSNLWGQGTQVTVSS
B15: A4-086 (VHH)
VHH: VQLQESGGGLVQPGGSLRLSCAASGSRFSLNTMGWYRQAPGKQRELVAAVTRGGNTNYADFVKGRFTISRDNAKNTVYLQMNSLRPEDTAVYYCHVDELRESSWTTSNLWGQGTQVTVSS

Key:
Assay in all cases: SPR, AAV amine-coupled to CM5 chip;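 further: nanobodies flowed as analyte at seven concentrations spanning 1–100 nM over immobilized AAV (500–800 RU), kinetic constants derived by fitting the binding curves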
[1] = target: T1, AAV9 (adeno-associated virus 9)
T1 construct: also called adeno-associated virus serotype 9
Experimental: (§1) AAV was amine-coupled to a CM5 sensor chip at a density of 500-800 response units (RU). Nanobodies were injected at seven concentrations (1-100 nM) with a flow rate of 45 μL/min, and chip regeneration was performed using glycine-HCl (pH 1.5). Binding curves at different nanobody concentrations were used to calculate kinetic parameters (Kₐ, Kd, KD) (Table 2 and FIG. 2).

[2] = target: T2, AAV8 (adeno-associated virus 8)
T2 construct: also called adeno-associated virus serotype 8
Experimental: as §1

[3] = target: T3, AAV5 (adeno-associated virus 5)
T3 construct: also called adeno-associated virus serotype 5
Experimental: as §1

Binder | Kd [1] [nM] | koff [1] [s⁻¹] | kon [1] [M⁻¹ s⁻¹] | Kd [2] [nM] | koff [2] [s⁻¹] | kon [2] [M⁻¹ s⁻¹] | Kd [3] [nM] | koff [3] [s⁻¹] | kon [3] [M⁻¹ s⁻¹]
B1 | 81.6 | 0.00401 | 49100 | 439 | 0.0065 | 14800 | 128 | 0.00834 | 65000
B2 | 8.44 | 0.00139 | 165000 | 184 | 0.00095 | 5180 | 25 | 0.00155 | 61900
B3 | 32.8 | 0.00101 | 30700 | 21.6 | 0.002 | 92400 | 20.7 | 0.00191 | 92100
B4 | 9.34 | 0.00098 | 105000 | 11.6 | 0.00142 | 122000 | 3.58 | 0.0002 | 55800
B5 | 35.5 | 0.00012 | 3380 | 20.9 | 0.00019 | 9090 | 86.8 | 0.00064 | 7370
B6 | 1880 | 0.00292 | 1560 | 1140 | 0.00619 | 5420 | 1140 | 0.00862 | 7530
B7 | 9.74 | 0.00099 | 102000 | 9.57 | 0.00067 | 70000 | 28.9 | 0.00086 | 29800
B8 | 215 | 0.00618 | 28800 | 61.6 | 0.006 | 97500 | 52.7 | 0.00932 | 177000
B9 | 382 | 0.00051 | 1340 | 1620 | 0.0019 | 1180 | 211 | 0.00083 | 3930
B10 | 5.08 | 0.00074 | 146000 | 191 | 0.00138 | 7220 | 20.4 | 0.00194 | 95200
B11 | 13.7 | 0.00131 | 95900 | 6.05 | 0.00105 | 174000 | 12.5 | 0.00146 | 117000
B12 | 122 | 0.0004 | 3290 | 46.7 | 0.00017 | 3640 | 92.9 | 0.0005 | 5380
B13 | 2.28 | 0.0003 | 132000 | 12.8 | 0.00177 | 138000 | 0.364 | 6e-05 | 165000
B14 | 223 | 0.0005 | 2240 | 108 | 0.00041 | 3790 | 192 | 0.00191 | 9940
B15 | 1.45 | 0.00026 | 179000 | 0.76 | 6e-05 | 78900 | 23.1 | 0.00107 | 46400

Reference: patent US20260193326A1 (published 2026)
